Like-named read-outs stand apart in the source and are kept apart here.
Key:
[1] = biological target: T1, human CD47 on cells (human, UniProt Q08722 19-323); assay: flow cytometry on human red blood cells; unit taken from the axis
T1 construct: also called CHO-K1/huCD47; human CD47 over-expressed in CHO-K1 cells

[2] = biological target: T2, cynomolgus monkey CD47 on CHO-K1 cells (cynomolgus monkey, UniProt A0A5F8AK49 19-323 (rhesus entry)); assay: flow cytometry on CHO-K1/cyno CD47 cells; unit taken from the axis
T2 construct: whole, on cells; also called CHO-K1/cyno CD47; CHO-K1/cynoCD47
Protocol: (§1) Briefly, binding to cell-expressed cyno CD47 was evaluated on cynomolgus monkey CD47 over-expressing CHO cells. Anti-CD47 antibody dilution series was prepared in FACS buffer. CHO-K1/cynomolgus monkey CD47 cell were transferred to a 96-well U-bottom plate and add CD47 antibody dilution. After 30 minutes incubation at 4° C., cells were washed twice with FACS buffer. […] The cells were washed twice with wash buffer, and then analyzed for binding by using FACSCalibur (BD Bioscience, San Jose, Calif.) and Flowjo software.

[3] = biological target: T3, human CD47-His protein (human, UniProt Q08722 19-139, limits assumed); assay: SPR (Biacore T200), antibody captured, human CD47-His as analyte, 1:1 model
T3 construct: It includes the signal peptide and the membrane-spanning region, which a soluble protein would lack; not shown: His tag

[4] = biological target: T1, human CD47 on cells; assay: flow cytometry, blocking of human SIRPα binding to CHO-K1/huCD47 cells
Protocol: (§2) After 30 minutes incubation at 4° C., cells were washed twice with FACS buffer.

[5] = biological target: T1, human CD47 on cells; assay: flow cytometry on CHO-K1/huCD47 cells; x axis Log(nM), unit taken from the axis
Protocol: (§3) Binding to cell-expressed human CD47 was evaluated on human CD47 over-expressing CHO cells (GenScript, Cat #M00581). Anti-CD47 antibody dilution series was prepared in FACS buffer. CHO-K1/human CD47 cells were transferred to a 96-well U-bottom plate and anti-CD47 antibody dilution was added. […] The cells were then washed twice with wash buffer. Cells were analyzed for binding by FACSCalibur (BD Bioscience, San Jose, Calif.) and Flowjo software.

[6] = biological target: T4, CD47 protein; assay: ELISA on CD47 protein; x axis is log10 of mAb (ng/ml), unit taken from the axis
T4 construct: also called CD47 (ELISA antigen); not shown: The carrier of the coated recombinant protein (an Fc tag as in CD47-Fc, or a His tag as in CD47-His)

[7] = biological target: T1, human CD47 on cells; assay: flow cytometry on CHO-K1/huCD47 cells; x axis Log(nM)
Protocol: as §3

[8] = biological target: T1, human CD47 on cells; assay: flow cytometry on red blood cells; unit taken from the axis
[9] = biological target: T1, human CD47 on cells; assay: flow cytometry on CHO-K1/huCD47 cells; unit taken from the axis
Protocol: as §3

[10] = biological target: T2, cynomolgus monkey CD47 on CHO-K1 cells; assay: flow cytometry on CHO-K1/cynoCD47 cells; unit taken from the axis
Protocol: as §1

[11] = biological target: T1, human CD47 on cells; assay: flow cytometry, blocking of human SIRPα binding to CHO-K1/huCD47 cells; the box on the sheet is labelled EC50; unit taken from the axis
[12] = biological target: T1, human CD47 on cells; assay: as above; remark: listed apart in the source
Protocol: as §2

[13] = biological target: T4, CD47 protein; assay: ELISA on CD47 protein; x axis is log10 of mAb (ng/ml)

| EC50 [2] | Kd [3] | koff [3] | kon [3] | EC50 [5] | EC50 [6] | EC50 (read off the curve) [7] | EC50 [8] | EC50 [9] | EC50 [10] | IC50 [11] | Binder | other results |
| --- | --- | --- | --- | --- | --- | --- | --- | --- | --- | --- | --- | --- |
| 2.03 nM | 0.74 nM | 0.00032 s⁻¹ | 430000 M⁻¹ s⁻¹ | 8.59 nM | 0.0621 µg/mL |  |  |  |  |  | 108C10A6 (antibody, V domains shown, also called murine anti-CD47 antibody 108C10A6; 108C10A6/108C10F5) VH: QMQLQQSGPQLVRPGASVKISCKTSGYSFTHHWIHWMKQRPGQGLEWIGMIDPSDSETRLSQKFKDKATLTVDASSSTAYMQLNSPTSEDSALYFCARLGRYYFDYWGQGTTLTVSS VL: NIVMTQSPRSMSMSVGERVTLSCKASENVGTYISWYQQKPDQSPKLLIYGASNRYTGVPDRFTGSGSGTDFTLTISTVQAEDLADYHCGESYGHLYTFGGGTKLEIK | EC50 [1]: 0.0558 µg/mL; IC50 (read off the curve) [4]: ~1 nM |
| 2.01 nM |  |  |  |  | 0.0234 µg/mL | ~5 nM |  |  |  |  | 108C10F5 (antibody, V domains shown, purified murine anti-CD47 hybridoma antibody; separate subclone with its own curves; same VH and VL as 108C10A6; also called 09-108C10F5) VH: QMQLQQSGPQLVRPGASVKISCKTSGYSFTHHWIHWMKQRPGQGLEWIGMIDPSDSETRLSQKFKDKATLTVDASSSTAYMQLNSPTSEDSALYFCARLGRYYFDYWGQGTTLTVSS VL: NIVMTQSPRSMSMSVGERVTLSCKASENVGTYISWYQQKPDQSPKLLIYGASNRYTGVPDRFTGSGSGTDFTLTISTVQAEDLADYHCGESYGHLYTFGGGTKLEIK |  |
|  | 1.4 nM | 0.00043 s⁻¹ | 310000 M⁻¹ s⁻¹ |  |  |  | 2.62 nM | 0.299 nM | 0.262 nM | 0.911 nM | 108VH4.M4_VL1.M1-hIgG1 (antibody, Humanized 108C10A6, human IgG1 with kappa light chain; also called 108VH4.M4_VL1.M1-hlgG1; 108VH4.M4_VL1.M1-hIgG1-Ka) heavy: not shown light: EIVLTQSPATLSLSPGERATLSCRASENVGTYISWYQQKPGQAPRLLIYGASNRYTGIPARFSGSGSGTDFTLTISSLEPEDFAVYYCGESYGHLYTFGGGTKVEIKRTVAAPSVFIFPPSDEQLKSGTASVVCLLNNFYPREAKVQWKVDNALQSGNSQESVTEQDSKDSTYSLSSTLTLSKADYEKHKVYACEVTHQGLSSPVTKSFNRGEC |  |
|  | 1.5 nM | 0.00044 s⁻¹ | 290000 M⁻¹ s⁻¹ |  |  |  | 5.51 nM | 1.4 nM | 1.31 nM | 1.87 nM | 108VH4.M4_VL1.M1-hIgG2 (antibody, Humanized 108C10A6, human IgG2 with kappa light chain; also called 108VH4.M4_VL1.M1-hlgG2; 108VH4.M4_VL1.M1-hIgG2-Ka) heavy: EVQLVQSGAEVKKPGSSVKVSCKASGYSFTHHWIHWVRQAPGQGLEWMGMIDASDSETRLSQKFKDRVTITADKSTSTAYMELSSLRSEDTAVYYCARLGRYYFDYWGQGTTVTVSSASTKGPSVFPLAPCSRSTSESTAALGCLVKDYFPEPVTVSWNSGALTSGVHTFPAVLQSSGLYSLSSVVTVPSSNFGTQTYTCNVDHKPSNTKVDKTVERKCCVECPPCPAPPVAGPSVFLFPPKPKDTLMISRTPEVTCVVVDVSHEDPEVQFNWYVDGVEVHNAKTKPREEQFNSTFRVVSVLTVVHQDWLNGKEYKCKVSNKGLPAPIEKTISKTKGQPREPQVYTLPPSREEMTKNQVSLTCLVKGFYPSDIAVEWESNGQPENNYKTTPPMLDSDGSFFLYSKLTVDKSRWQQGNVFSCSVMHEALHNHYTQKSLSLSPGK light: EIVLTQSPATLSLSPGERATLSCRASENVGTYISWYQQKPGQAPRLLIYGASNRYTGIPARFSGSGSGTDFTLTISSLEPEDFAVYYCGESYGHLYTFGGGTKVEIKRTVAAPSVFIFPPSDEQLKSGTASVVCLLNNFYPREAKVQWKVDNALQSGNSQESVTEQDSKDSTYSLSSTLTLSKADYEKHKVYACEVTHQGLSSPVTKSFNRGEC |  |
|  |  |  |  | 3.48 nM | 0.00353 µg/mL |  |  |  |  |  | 98G5F6 (antibody, V domains shown, purified murine anti-CD47 hybridoma antibody; same VH and VL as 98G5F11; also called 05-98G5F6) VH: QVQLQQSGPQLVRPGASVKISCKASGYSFTNYWMHWMKQRPGQGLEWIGMIDPSDSETRLNQQFKDKATLTVDKSSSTAYMQLSSPTSEDSAVYYCARLGRYYFDFWGQGTTLTVSS VL: NIVMTQSPKSMSVSVGERVTLSCRASEIVGTYVSWYQQKPEQSPKLLIYGASNRFTGVPDRFTGSRSATDFSLTISNVQAEDLADYLCGQSYDSPYTFGGGTKLEIK | IC50 [12]: 6.97 nM |
|  |  |  |  |  |  | ~10 nM |  |  |  |  | 98G5F11 (antibody, V domains shown, purified murine anti-CD47 hybridoma antibody; same VH and VL as 98G5F6; also called 06-98G5F11) VH: QVQLQQSGPQLVRPGASVKISCKASGYSFTNYWMHWMKQRPGQGLEWIGMIDPSDSETRLNQQFKDKATLTVDKSSSTAYMQLSSPTSEDSAVYYCARLGRYYFDFWGQGTTLTVSS VL: NIVMTQSPKSMSVSVGERVTLSCRASEIVGTYVSWYQQKPEQSPKLLIYGASNRFTGVPDRFTGSRSATDFSLTISNVQAEDLADYLCGQSYDSPYTFGGGTKLEIK | EC50 (read off the curve) [13]: ~0.009 µg/mL |
